The source of these data is article PMC11330527, “Structure and dimerization properties of the plant-specific copper chaperone CCH” (Scientific Reports, 2024).

Data set [1] concerns the molecule itself. As to the kind of experiment: MST; both copies in the apo (copper-free) state; Alexa Fluor 488-labeled chaperone 20 nM, unlabeled chaperone 4.6 to 400 nM; 300 mM NaCl, 50 mM HEPES, 0.05% Tween-20, pH 7.5, no DTT; room temperature; one-site binding model; apparent KD; dimer to monomers.
Data set [2] concerns the molecule itself. As to the kind of experiment: MST; only one copy preloaded with copper (CCH: labeled copy copper-loaded, unlabeled copper-free; CCHΔ: unlabeled copy copper-loaded, labeled copper-free); labeled chaperone 20 nM, unlabeled 0.4 to 6.25 µM; 300 mM NaCl, 50 mM HEPES, 0.05% Tween-20, pH 7.5; room temperature; one-site binding model; apparent KD; dimer to monomers.

B1: CCHΔ, truncation mutant of CCH lacking the C-terminal extension (domain or fragment, Arabidopsis thaliana, UniProt O82089 1-70, looked up)
chain: MAQTVVLKVGMSCQGCVGAVNRVLGKMEGVESFDIDIKEQKVTVKGNVEPEAVFQTVSKTGKKTSYWPVE
modifications: also: Alexa Fluor 488 NHS ester on amines (labeled copy only)
notes: Used copper-free (apo) or preloaded with Cu(I) from Cu(I)-(BCA)2; A TEV site follows the His-tag; source: E. coli, purified (IMAC, TEV digestion, SEC); not shown: 10xHis, N-terminal, cleaved
On to B1, for which the Kd came out at 57 ± 9 nM in data set [1] and 169 ± 51 nM in data set [2].

B2: copper chaperone CCH (full-length CCH) from Arabidopsis (natural protein, Arabidopsis thaliana, UniProt O82089 1-120, looked up)
chain: MAQTVVLKVGMSCQGCVGAVNRVLGKMEGVESFDIDIKEQKVTVKGNVEPEAVFQTVSKTGKKTSYWPVEAEAEPKAEADPKVETVTETKTEAETKTEAKVDAKADVEPKAAEAETKPSQ
modifications: Alexa Fluor 488 NHS ester on amines (only the labeled copy in MST)
notes: Used copper-free (apo) or preloaded with Cu(I) from Cu(I)-(BCA)2; A TEV site follows the His-tag; Vector pETEV16b-CCH; also called apo-CCH; Cu(I)-CCH; source: E. coli, purified (IMAC, TEV digestion, SEC); not shown: 10xHis, N-terminal, cleaved
On to B2, for which the Kd in data set [1] is 18 ± 6 nM; in data set [2] it was 78 ± 39 nM.
